Test results reported in article PMC10877727, “Effect of TraN key residues involved in DNA binding on pIP501 transfer rates in Enterococcus faecalis”.

Legend:
Settings in all cases: protein: recombinant; tags: N-terminal 7xHis (pQTEV); blunt
TraN_G47A-G48A = TraN_G47A-G48A (Enterococcus faecalis plasmid pIP501, UniProt Q7BVV5 1-122, G47A;G48A); assay: MST; MST in PBS-T (pH and temperature not stated); 50 nM RED-tris-NTA labelled His-protein, dsDNA 0.781 nM to 12.8 uM; Monolith NT.115, 60% LED and MST power
TraN_H82A-R86A [1] = molecular target: T1, TraN_H82A-R86A (Enterococcus faecalis plasmid pIP501, UniProt Q7BVV5 1-122, H82A;R86A); assay: as above
TraN_R23A-N24A-Q28A = TraN_R23A-N24A-Q28A (Enterococcus faecalis plasmid pIP501, UniProt Q7BVV5 1-122, R23A;N24A;Q28A); assay: as above
TraN_G100A-K101A [2] = molecular target: T2, TraN_G100A-K101A (Enterococcus faecalis plasmid pIP501, UniProt Q7BVV5 1-122, G100A;K101A); assay: as above
TraN = TraN (Enterococcus faecalis plasmid pIP501, UniProt Q7BVV5 1-122); assay: as above
TraN_H82A-R86A [3] = molecular target: T1, TraN_H82A-R86A; assay: MST; no sigmoidal fit possible up to 12.8 uM DNA; extremely low affinity; MST in PBS-T (pH and temperature not stated); 50 nM RED-tris-NTA labelled His-protein, dsDNA 0.781 nM to 12.8 uM; Monolith NT.115, 60% LED and MST power
TraN_G100A-K101A [4] = molecular target: T2, TraN_G100A-K101A; assay: as above

B1: oBS 34-mer (original TraN binding site) (dsDNA)
DNA 1: CGGAAATGTCAGGTTAAACATATTTACTTTTATA
DNA 2: TATAAAAGTAAATATGTTTAACCTGACATTTCCG
How did the Kd (TraN_G47A-G48A) turn out when B1 was run?
The Kd was 0.0488 ± 0.00975 µM.

And the Kd (TraN_H82A-R86A [1])?
Its Kd is 0.425 ± 0.102 µM.

What about the Kd (TraN_R23A-N24A-Q28A) of the same binder?
Its Kd is 0.154 ± 0.0195 µM.

What about the Kd (TraN_G100A-K101A [2]) of the same binder?
Its Kd is 0.406 ± 0.0455 µM.

What about the Kd (TraN) of the same binder?
Its Kd is 0.0117 ± 0.00265 µM.

B2: random DNA 34-mer (dsDNA)
DNA 1: AGGGCGCACTTATACGCAGTAACTTCGTTACTTC
DNA 2: GAAGTAACGAAGTTACTGCGTATAAGTGCGCCCT
Which results are given for B2?
binding result (TraN_H82A-R86A [3]): no binding; binding result (TraN_G100A-K101A [4]): no binding
